Experimental data: patent US20230183339A1

Target: FcRn
Assay: BIAcore at pH 6.0

Substance | Kd [nM]
wild-type irrelevant IgG1 (antibody) | 1640
wild-type irrelevant IgG4 (antibody) | 3640
